The values below come from paper doi:10.1101/2024.07.22.604500.

In experiment [1] the target is H1.0–Ub chromatosome (CH1) (UniProt P07305).
Experiment [2] has as its target H1.0–K63-Ub2 chromatosome (CH2) (UniProt P07305).
In experiment [3] the target is unmodified H1.0-containing chromatosome (CH0) (UniProt P07305).
The target of experiment [4] is H1.0–K63-Ub3 chromatosome (CH3) (UniProt P07305).

For “RNF168^1–193 (from UniProt Q8IYW5 1-193) (domain or fragment)”, the H2A conversion in the in vitro ubiquitylation assay, 5 and 10 min (2% and 3%) in experiment [1] turned out to be 3%. In experiment [2], this substance yielded an H2A conversion in the in vitro ubiquitylation assay, 5 and 10 min (13% and 25%) of 25%. In experiment [3], this substance showed an H2A conversion in the in vitro ubiquitylation assay, 5 and 10 min (3% and 5%) of 5%. In experiment [4], the H2A conversion in the in vitro ubiquitylation assay, 5 and 10 min (28% and 48%) stood at 48%.
